According to paper PMC5687031 (Molecular Biology of the Cell, 2017):

Assays:
Spc110^891-944 [1] = target: T1, Spc110^891-944 (S. cerevisiae, UniProt P32380 891-944); experiment: SAXS
T1 sequence (looked up): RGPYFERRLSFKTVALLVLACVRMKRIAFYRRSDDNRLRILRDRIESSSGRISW

crystal structure = target: the molecule itself; experiment: crystal structure
Spc110^891-944 [2] = target: T1, Spc110^891-944; experiment: crystal structure

B1: Kluyveromyces lactis calmodulin (natural protein)
chain: not shown
modifications: disulfide between Cys79 of the two calmodulins in the crystal
In the case of B1, the “stoichiometry N” value (Spc110^891-944 [1]) is reported as 1 calmodulin per Spc110^891-944, the “stoichiometry N” value (crystal structure) is reported as 2 calmodulin chains and the “stoichiometry N” value (Spc110^891-944 [2]) is reported as 1 calmodulin per Spc110 CBD (2:2).
